Results reported in patent US9347942B2, “Ultrasensitive cell based sensors and uses thereof” (CANVAX BIOTECH SL, priority 2010, dated 2016).

Key:
Assay type in all cases: cell-based, Rat
[1] = test system: anti-TNP IgE labelled RBL2H3-hGB cells; test: IgE-allergen sensor, granzyme B release (Example 16); settings: substrate 1 uM
Excerpt: This example describes the use of the sensor for testing modulators of mast cells granule exocytosis widely used to find novel anti-allergic compounds as illustrated in FIG. 1. RBL2H3 were stably transfected with human granzyme B under the control of hCMV-MoLV5′LTR chimeric promoter as described in example 3. A mouse IgE monoclonal antibody against trinitrophenyl hapten was purified from IgELb4 hybridoma purchased from ATCC (TIB-141). TNP-N-hydroxysuccinimide esther was purchased from Biosearch Technologies Inc and conjugated to bovine serum albumin (BSA) using a standard protocol. Conjugation was determined at pH 7.0 by measuring TNP absorbance at 348 nm using 15400 units per mol per 10 mm light pass length as the extinction coefficient of TNP. Molar ratio of TNP to BSA in the TNP-BSA conjugate was calculated assuming the molecular weight of BSA is 60000. Sensor cells were cultivated as adherent cells for 48 hours in 6 well plates and then washed with HBSS and harvested by pippeting. 500.000 cells were labelled with anti-TNP IgE at 1 ug/ml_in HBSS for 60 minutes at 37 Celsius degrees, washed with 10 mL of HBSS, centrifuged and pellet was resuspended in 1 mL of HBSS. In a black wall 384 well plate 10 uL of serial dilutions of TNP-BSA in HBSS were added each containing the FRET-based granzyme B substrate FAM-[…]TAMRA (FAM-[…]-TAMRA) at 1 uM final concentration whose cleavage was detected by fluorescence using excitation at 485 nm and emission at 535 nm. Dilutions of TNP-BSA tested were: 1 ug/mL, 1 ng/mL, 1 pg/mL and 1 fg/mL. To each well 10 uL (5000 cells) of anti-TNP IgE labelled cells were added and plates were incubated at 37 Celsius degrees in a BMG-Labtech microplate fluorimeter. Microplate was read at 0, 15, 30, 45 and 60 minutes. The following controls were included: (1) wells with anti-TNP IgE labelled cells plus granzyme B substrate but without TNP-BSA; (2) wells with non-labelled cells plus granzyme B substrate and TNP-BSA at 1 ug/ml_; (3) wells with granzyme B substrate and TNP-BSA at 1 ug/ml_but no cells. Each well was included by triplicate.

RBL-2H3 cells [2] = test: Activity of granule stored protease reporters released by ionomycin, transient transfection (Example 4); settings: transiently transfected RBL-2H3, 650.000 cells, 10 uM ionomycin 1 hour, supernatant
Excerpt: Vectors were developed to express human granzyme A, M, H and K and human neutrophil elastase, human chymase, human cathepsin G and human proteinase 3 under the control of hCMV-MoMLV5′LTR chimeric promoter and RBL-2H3 cells were individually transfected by electroporation using a microporator (Gentelbio, South Korea) with the above plasmids and also with human granzyme B plasmid as control and with cytosolically truncated hNGFR receptor as a surface tag for determination of the percentage of transfection by flow cytometry with a anti-hNGFR monoclonal antibody conjugated to FITC (Miltenyi Biotec, Germany). After 48 hours cells were harvested by pipetting, washed with HBSS buffer and counted. 650.000 cells in 200 microliters of HBSS buffer were treated in suspension with 10 uM ionomycin for 1 hour and after centrifugation at 400 g for 5 minutes the supernatants were analysed for activity with specific fluorescent substrates. Controls of cells incubated with HBSS buffer only were included. Fluorescent substrates were specific tetrapeptides conjugated to 7-Amido-4-Methylcoumarin (AMC) and were custom synthesized by a custom peptide supplier. Specific substrates were: VANR-AMC for granzyme A; KVPL-AMC for granzyme M; PTSY-AMC for granzyme H; YRFK-AMC for granzyme K; PEEI-AMC for human neutrophil elastase; PTSY-AMC for human chymase; PTSY-AMC for human cathepsin G; VADC-AMC for human proteinase 3 and IEPD-AMC for human granzyme B. Released AMC was measured by excitation at 360 nm and emission at 460 nm in a BMG Labtech microplate fluorimeter in 96 well microplates using 125 microliters of supernatant and 125 microliters of specific substrate at 400 micromol per liter in HBSS buffer. Microplates were incubated at 37 Celsius degrees on the reader and were kinetically read at 0, 15, 30, 45 and 60 minutes. Percentage of transient electroporation measured using truncated hNGFR tag and anti-hNGFR-FITC antibody was about 60 percent.

RBL-2H3 cells [3] = test: Ionomycin-induced release of granule stored protease reporters from stable cell lines (Example 5); settings: stable RBL-2H3, 10 uM ionomycin 1 hour, supernatant equivalent to 100.000 cells, AMC substrate
Excerpt: As either tryptase-like enzymes, chymase-like enzymes, elastase-like enzymes or asp-ase like enzymes are useful for the methods of the present invention we selected human granzyme A (tryptase-like enzyme); human granzyme B (Asp-ase-like enzyme); human chymase (chymase-like enzyme) and human proteinase 3 (elastase-like enzyme) for further examples. Vectors were developed for stable expression of human granzyme A, human granzyme B, human chymase and human proteinase 3 under the control of hCMV-MoMLV5′LTR chimeric promoter. A hygromycin resistance cassette was included in the vector backbone for selection of stable populations of cells. The vector also included an IRES-NGFR cassette cloned downstream of granule stored protease reporter and thus, under the control of hCMV-MoMLV5′LTR promoter for flow cytometry and/or selection by MACS of stable cells expressing either human granzyme A or human granzyme B or human chymase or human proteinase 3. Each vector was individually electroporated using a microporator (Digital Bio Technology, South Korea) into RBL-2H3 and after 48 hours hygromycin at 1500 ug/mL was added to culture for selection. After selection for about 2 weeks cells were analysed by flow cytometry (Guava Technologies, USA) with an antibody against NGFR coupled to FITC. Positive population where magnetically separated by MACS using anti-NGFR-MACS sup.R (Miltenyi Biotec, Germany). Sorted populations were again analysed again by flow cytometry to check the sorting efficiency. Percentage of NGFR positive cells was always higher than 65 percent. Cells were seeded the night before experiment in 24 well microplates at 650.000 cells per well in 800 microliters of complete cell culture medium. Next day cells were washed with HBSS buffer and were treated with 10 uM ionomycin for 1 hour at 37 Celsius degrees in 200 uL of HBSS buffer and after centrifugation at 400 g for 5 minutes supernatants were analysed for activity with specific fluorescent substrates. Controls of cells incubated with HBSS buffer only were included. Fluorescent substrates were: VANR-AMC for granzyme A; PEEI-AMC for human neutrophil elastase; PTSY-AMC for human chymase; VADC-AMC for human proteinase 3 and IEPD-AMC for human granzyme B. Released AMC was measured by excitation at 360 nm and emission at 460 nm in a BMG Labtech microplate fluorimeter in 96 well microplates using 125 microliters of supernatant and 125 microliters of specific substrate at 400 micromol per liter in HBSS buffer. Microplates were incubated at 37 Celsius degrees on the reader and were kinetically read at 0, 15, 30, 45 and 60 minutes. Control wells with substrate only in HBSS buffer were included to subtract autofluorescence of substrates to both cells treated with ionomycin and to cells treated with HBSS buffer only. Autofluorescence of peptide substrates in HBSS buffer was about 3000 while fluorescence of cells treated with HBSS buffer only for 60 minutes at 37 Celsius degrees was about 5000, that is basal release in the absence of exocytosis modulator was about 2000. In contrast, fluorescence of ionomycin-induced release of human granzymes A and B was about 20.000 for a signal to background of 10 when using the supernatant equivalent to 100.000 cells; fluorescence of ionomycin-induced release of human chymase was about 30.000 for a signal to background of 15 when using the supernatant equivalent to 100.000 cells and fluorescence of ionomycin-induced release of human proteinase 3 was about 12.000 for a signal to background of 6 when using the supernatant equivalent to 100.000 cells. Thus, tryptase-like enzymes, chymase-like enzymes, elastase-like enzymes or asp-ase like enzymes can be stably expressed into granules of hemopoyetic cells with professional regulated exocytosis and such granule stored proteases are released by exocytosis modulators to produce sensors with good signal to background ratios using specific AMC-coupled peptide substrates. […]

| Molecule | Fluorescence after 30 minutes at 37° C. ([1]; TNP-BSA 1 pg/mL, 5000 cells with anti-TNP IgE) | Fluorescence after 30 minutes at 37° C. ([1]; TNP-BSA 1 ng/mL, 5000 cells with anti-TNP IgE) | Fluorescence after 30 minutes at 37° C. ([1]; TNP-BSA 1 ug/mL, 5000 cells with anti-TNP IgE) | Fluorescence after 30 minutes at 37° C. ([1]; TNP-BSA 1 ug/mL, 5000 cells without anti-TNP IgE (non-labelled)) | Fluorescence after 30 minutes at 37° C. ([1]; TNP-BSA 1 fg/mL, 5000 cells with anti-TNP IgE) | enzymatic activity of released reporter with specific AMC substrate (RBL-2H3 cells [2]) | fluorescence of ionomycin-induced release (RBL-2H3 cells [3]) | signal to background (RBL-2H3 cells [3]) |
| --- | --- | --- | --- | --- | --- | --- | --- | --- |
| TNP-BSA: trinitrophenyl hapten conjugated to bovine serum albumin, model allergen | 35884 | 34556 | 30942 | 2935 | 29826 |  |  |  |
| human granzyme A: Tryptase-like serine protease (GZMA, NM_006144) used as granule stored reporter (protein, UniProt P12544 29-262, looked up) Granzyme A: IIGGNEVTPHSRPYMVLLSLDRKTICAGALIAKDWVLTAAHCNLNKRSQVILGAHSITREEPTKQIMLVKKEFPYPCYDPATREGDLKLLQLMEKAKINKYVTILHLPKKGDDVKPGTMCQVAGWGRTHNSASWSDTLREVNITIIDRKVCNDRNHYNFNPVIGMNMVCAGSLRGGRDSCNGDSGSPLLCEGVFRGVTSFGLENKCGDPRGPGVYILLSKKHLNWIIMTIKGAV |  |  |  |  |  | higher activity than granzyme K | about 20.000 | 10 |
| human chymase: Chymase-like serine protease (CMA1, NM_001836) used as granule stored reporter (protein, UniProt P23946 22-247, looked up) Chymase: IIGGTECKPHSRPYMAYLEIVTSNGPSKFCGGFLIRRNFVLTAAHCAGRSITVTLGAHNITEEEDTWQKLEVIKQFRHPKYNTSTLHHDIMLLKLKEKASLTLAVGTLPFPSQFNFVPPGRMCRVAGWGRTGVLKPGSDTLQEVKLRLMDPQACSHFRDFDHNLQLCVGNPRKTKSAFKGDSGGPLLCAGVAQGIVSYGRSDAKPPAVFTRISHYRPWINQILQAN |  |  |  |  |  | highest activity | about 30.000 | 15 |
| neutrophil elastase: Elastase-like serine protease (ELA2, NM_001972) used as granule stored reporter (protein, UniProt P08246 30-267, looked up) Neutrophil elastase: IVGGRRARPHAWPFMVSLQLRGGHFCGATLIAPNFVMSAAHCVANVNVRAVRVVLGAHNLSRREPTRQVFAVQRIFENGYDPVNLLNDIVILQLNGSATINANVQVAQLPAQGRRLGNGVQCLAMGWGLLGRNRGIASVLQELNVTVVTSLCRRSNVCTLVRGRQAGVCFGDSGSPLVCNGLIHGIASFVRGGCASGLYPDAFAPVAQFVNWIDSIIQRSEDNPCPHPRDPDPASRTH |  |  |  |  |  | equivalent activity that was higher than that of human granzyme M |  |  |
| human proteinase 3: Elastase-like serine protease (PRTN3, NM_002777) used as granule stored reporter (protein, UniProt P24158 28-248, looked up) Myeloblastin: IVGGHEAQPHSRPYMASLQMRGNPGSHFCGGTLIHPSFVLTAAHCLRDIPQRLVNVVLGAHNVRTQEPTQQHFSVAQVFLNNYDAENKLNDVLLIQLSSPANLSASVATVQLPQQDQPVPHGTQCLAMGWGRVGAHDPPAQVLQELNVTVVTFFCRPHNICTFVPRRKAGICFGDSGGPLICDGIIQGIDSFVIWGCATRLFPDFFTRVALYVDWIRSTLR |  |  |  |  |  | equivalent activity that was higher than that of human granzyme M | about 12.000 | 6 |
